The source of these data is patent publication US20130210673A1 (published 2013).

Experiment [1] deals with T1, human C-reactive protein (human, UniProt P02741 19-224, biotinylated or conjugated to AlexaFluor488 for labeling).
T1 construct: Bought protein; also called CRP; C-RP
T1 sequence (looked up): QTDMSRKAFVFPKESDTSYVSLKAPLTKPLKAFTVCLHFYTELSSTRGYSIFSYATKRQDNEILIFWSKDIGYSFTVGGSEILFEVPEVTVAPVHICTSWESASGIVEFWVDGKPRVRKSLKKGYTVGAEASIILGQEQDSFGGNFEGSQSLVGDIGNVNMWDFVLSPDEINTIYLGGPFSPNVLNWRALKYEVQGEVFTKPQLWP
Put plainly: bacterial display selection.

Experiment [2] concerns the target T2, streptavidin (UniProt P22629 37-163, limits assumed).
T2 construct: Used as streptavidin-phycoerythrin in flow cytometry and as coated beads for YFP-SA-1; also called SA; streptavidin-phycoerythrin
Description: bacterial display selection.

In experiment [3] the target is T2, streptavidin. Put plainly: flow cytometry, equilibrium. As to the method:
The corresponding mean fluorescence versus concentration data were fit to a monovalent binding isotherm to obtain the apparent KD. Dissociation rates of streptavidin-binding clones were measured in the presence of about 1 to about 2 μM biotin. Cells were labeled with 50 nM streptavidin-phycoerythrin for 30 minutes at room temperature. The cells were then pelleted, resuspended in PBS with biotin, and immediately analyzed by flow cytometry. Fluorescence data were collected continuously for about five minutes. The dissociation rate constants were then determined as described previously. See Daugherty, P. S., et al. (1998) Protein Eng. 11(9):825-832, which is herein incorporated by reference.
(A flow cytometer gives signals particle by particle.)

T2 sequence (P22629 37-163 limits assumed): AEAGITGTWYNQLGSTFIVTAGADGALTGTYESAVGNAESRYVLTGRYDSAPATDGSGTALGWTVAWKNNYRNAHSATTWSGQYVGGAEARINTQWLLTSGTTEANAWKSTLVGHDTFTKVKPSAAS

As to YPPRFQYYRFYYRGP (insert only) [SEQ ID NO 247], the binding result in experiment [1] is given as “binds”.

Consider EWACNDRGFNCQLQR (insert only) [SEQ ID NO 255], for which, in experiment [1], the binding result is “binds”. As to IMMECFYVCTIANTQ (insert only) [SEQ ID NO 245], the binding result in experiment [2] is on record as “binds”.

Take RLEICQNVCYYLGTL (insert only) [SEQ ID NO 232]: in experiment [3], the binding result is “binds”.

Turning to ICSYVMYTTCFLRVY (insert only) [SEQ ID NO 234], the binding result in experiment [3] is given as “binds”.

Turning to YWVCMNVCMYYTARQ (insert only) [SEQ ID NO 238], the binding result in experiment [2] is on record as “binds”. As to MIFNSRGFLSLMSSG (insert only) [SEQ ID NO 253], the binding result in experiment [1] is reported as “binds”. On to ICSYVMYTTCFLRVY (insert only) [SEQ ID NO 237], for which the binding result in experiment [2] is on record as “binds”. With TWVQCTMVCYGMSTT (insert only) [SEQ ID NO 242], the binding result in experiment [2] is listed as “binds”. Regarding LPVWCVMHVCLTSSR (insert only) [SEQ ID NO 239], the binding result in experiment [2] was “binds”. On to FPIYNQRGFITLASP (insert only) [SEQ ID NO 256], for which the binding result in experiment [1] is “binds”. Turning to RLEICQNVCYYLGTL (insert only) [SEQ ID NO 235], the binding result in experiment [2] is reported as “binds”.

As to NEWYCQNVCERMPHS (insert only) [SEQ ID NO 241], the binding result in experiment [2] is on record as “binds”. Consider TVLICMNICWTGETQ (insert only) [SEQ ID NO 233], for which, in experiment [3], the binding result is “binds”. In the case of ADTICWYVCTISVHA (insert only) [SEQ ID NO 244], in experiment [2], the binding result is “binds”.

Turning to TVLICMNICWTGETQ (insert only) [SEQ ID NO 236], in experiment [2], the binding result is “binds”.
